According to patent US20220153864A1:

Legend:
[1] = target: 32 different targets including GPC3, GPC5, and other TNF receptor proteins; experiment: off-target ELISA on 32 coated targets, sum of the ratios at 100 nM and 10 nM
[2] = target: 32 different targets including GPC3, GPC5, and other TNF receptor proteins; experiment: off-target ELISA on 32 coated targets, binder at 10 nM, signals normalized to control antibody SEQ ID NOs: 106 and 107 and summed
[3] = target: 32 different targets including GPC3, GPC5, and other TNF receptor proteins; experiment: off-target ELISA on 32 coated targets, binder at 100 nM, signals normalized to control antibody SEQ ID NOs: 106 and 107 and summed

B1: GPC3 antibody as included in the fusion protein (SEQ ID NOs: 81 and 82) (antibody, human IgG4 S228P, kappa, F234A L235A, V domains shown)
VH: QVQLVQSGAEVKKPGASVKVSCKASGYTFTDYEMHWVRQAPGQGLEWMGALDPKTGDTAYSQKFKGRVTLTADKSTSTAYMELSSLTSEDTAVYYCTRFYSYTYWGQGTLVTLVS
VL: DVVMTQSPLSLPVTPGEPASISCRSSQSLVHSNRNTYLHWYLQKPGQSPQLLIYKVSNRFSGVPDRFSGSGSGTDFTLKISRVEAEDVGVYYCSQNTHVPPTFGQGTKLEIKR
A sum of cumulative binding ratios [1] of 129, a cumulative binding ratio [2] of 48 and a cumulative binding ratio [3] of 81 were found for B1 in this work.
